System: MS2 coat protein
Assay: apparent KD of MS2 coat protein; designed switch direction (-1 OFF switch, 1 ON switch): -1; higher = weaker reporter binding
Summary of the method: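 Designed RNA switches were transcribed on Illumina chips by stalled E. coli RNA polymerase and titrated with SNAP-549-labelled MS2 coat protein from 0.7 or 1.5 nM, doubling to 3 µM. Step length ran from 0.8–1.5 h at the lowest concentration to 10–20 min at the highest. The apparent KD is the median over clusters for each design, from curve-fitted normalised cluster fluorescence.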

[1] = Eterna round: R95, input ligand: FMN 200 uM
[2] = Eterna round: R95, input ligand: microRNA oligo, concentration not stated
[3] = Eterna round: R95, input ligand: none
[4] = input ligand: microRNA oligo, concentration not stated

Sequence	apparent KD of MS2 coat protein [1] [nM]	apparent KD of MS2 coat protein [2] [nM]	apparent KD of MS2 coat protein [3] [nM]	apparent KD of MS2 coat protein (input ligand: FMN 200 uM) [nM]	apparent KD of MS2 coat protein [4] [nM]	apparent KD of MS2 coat protein (input ligand: none) [nM]
ACGUGAUAUCUGUCGGUGGACAUGAGGAUCACCCAUGUAAGCUUUUUGCCCGUCUUAUAACCCGGUGACAGACCUUC [Orlequla] (puzzle: Sensor v3, turn-off variant 1)	32.4	340	53.6			
AGUCGGCGAGGAUAUACAUGAGGAUCACCCAUGUGUGAUCCUAGACCUGUAGGUCCAUGUAGAAGGCGCUGACA [Exclusion 3 - Was a mod at one point] (puzzle: Exclusion 3)		18.8				
GUGAGACAUGAGGAUCACCCAUGUCAGGAUAUGAUACUAUGUACUUCGGUACAUAGUAUCAGAAGGGACAGUGA [Ex1-3: 5] (puzzle: Exclusion 1)		42.5				
AGUCAGGCGGUAGGAUAUCCAUAUCGAGUGACCCUUUCAUAACAUGAGGAUCACCCAUGUCGGUGGGAGAAGGGCCGUACGGCA [Mat - Exclusion NG 2 - Mod of JL - D68] (Eterna round: R96, puzzle: Exclusion NG 2)				116	52.3	89.3
GUAGAGUAAGGAUAUCAAGAAUAGGAUAGAAUGGUUAGAAUUGAGAAGGUACAUGAGGAUCACCCAUGUAAUGU [Excluse me!!!! 4 - Jieux - Exclusion 4] (puzzle: Exclusion 4)		24.1				
AAUAACAGAGGAUAUACUAUUUUAUGUGUUUAUUGUUUUAAACAUGAGGAUCACCCAUGUAGAAGGCUGAAUAA [JMF 16] (puzzle: Exclusion 2)		26.8				
UAACUUAUUGUAAGGAUAUCGGUCCGAAAGGACAACGAGAAGGUACAUGAGGAUCACCCAUGUGAAAUAAGAAU [Mod of Zala 21 - Jieux - Brourd's Mod of Exclusion 4] (Eterna round: R97, puzzle: Brourd's mod of Exclusion 4)				261		29.4
UUAGAUAGGUCAGGAUAUCGAUGAUUGAAUAGUAUGAUUUACAUGAGGAUCACCCAUGUUAAAUACGAGAAGGGACGUUAGAUU [JR_ExcNG2_Sub021] (Eterna round: R96, puzzle: Exclusion NG 2)				17.9	17.9	21.3
UCUUUGUUUGUGAGGAUAUCGGUGGAAUGGAUUGUCGAGAAGGCACAUGAGGAUCACCCAUGUGUGGGACAGCA [JR_BMEx4_Sub026] (Eterna round: R97, puzzle: Brourd's mod of Exclusion 4)				24.3		22.3
AAUAUACAUGUAGGAUAUCUGCACGUUUAGUGCAGAGAAGGACAUGAGGAUCACCCAUGUAAUUAAGAUCAAUUAUUAAAUAUU [ENG1/3-B2] (Eterna round: R96, puzzle: Exclusion NG 1)				437	39.6	63
CUUUUGUGAGGAUAUUAGUAGUAAAAAAAUAAAAUUACUACUGAGAAGGCACAUGAGGAUCACCCAUGUUCCUU [salish99_ex4_r3_039] (puzzle: Exclusion 4)		14.1				
GAAAAGGUAGGAUAUACGAAAAAAAAGGGUAGAAAAAAAACACAUGAGGAUCACCCAUGUAGAAGGACCAGAAG [salish99_ex2_r3_038] (puzzle: Exclusion 2)	72.8	27.9	17.3			
UAAUACAAGCAAAGAUCCUACAUGAGGAUCACCCAUGUGCUCGUCUUGUAAAGUACUAUCACGAAAGUGAUAGUACA [Mat - Sensor v3 - turn-off var 1 - Eli Mod - D77] (puzzle: Sensor v3, turn-off variant 1)	41.2	17.1	114			
GGUGGACAUGAGGAUCACCCAUGUGAGGAUAUCGGCCGGUUCGUGGUGGCUGGCGUCUCGAGAAGGCACAUAGU [Exclusion 1 V69] (puzzle: Exclusion 1)		114				
UUUAAAACAUAGGAUAUCGAAAUUAUCAUUUAACGAGAAGGAUGAACAUGAGGAUCACCCAUGUGGUAUCAUGG [Mat - Exclusion 6 - JL Mod - D17] (puzzle: Exclusion 6)	202	184	123			
CAUGAGGUAGGAUAUACGAUAAUAUAGGGUAGAUAUAUAACACAUGAGGAUCACCCAUGUAGAAGGACCAGUAC [Mat - Exclusion 2 - Mod of my Tesla design - D68] (puzzle: Exclusion 2)	95.7	35.9	34.4			
GUUUCGAGACGGAGAUCCGACAUGAGGAUCACCCAUGUCUCCCAAGCUUUUUGCUCGUCUUAUACUCCUCUGUUCUC [Elimod 47 - Jieux - Sensor, turn-off variant 1] (Eterna round: R97, puzzle: Sensor, turn-off variant 1)				18		19.4
AAAGUAGACCUUGAAGCAUCGUAAACAUGAGGAUCACCCAUGUAGGAUAUGGGUAGCUAUGCUAGCCAGAAGGAUGUGUGGUGA [Eternabot solution 16] (Eterna round: R96, puzzle: Exclusion NG 3)				335	39	54.4
UUUAUUUUGCAAGGAUAUGUUUAAUUUUAGUUUCCUUACACAUGAGGAUCACCCAUGUUAUACUUACAGAAGGUGCGUAAUUUU [Excl-NG2-LRO01] (Eterna round: R96, puzzle: Exclusion NG 2)					101	
UCUCGCGGGCAAGGAUAUCCCACGCUGUUCUGGCCCGUGUCUGUUACAUGAGGAUCACCCAUGUGGGAGAAGGUGCACCAGGGC [Design 43] (Eterna round: R96, puzzle: Exclusion NG 2)				30.9	16.8	29.4
AAACAACAUGAGGAUCACCCAUGUAAGGAUAUGCGAGUUGGGUCAACGAAGGUUGAAGGCAGAAGGUAUAGGGU [Erxevees] (puzzle: Exclusion 1)		49.3				
UUUUUGUGAGGAUAUCAGUAGUAAAAAAAUAAAAUUACUACUGAGAAGGCACAUGAGGAUCACCCAUGUUCUUU [salish99_ex4_r3_012] (puzzle: Exclusion 4)		18.4				
GCAGCAUAGAUAACAUACUGUUACAUGAGGAUCACCCAUGUAUAGGAUAUGGUCUGGAUUACAGGCCAGAAGGGUACAAGCUGC [Eli exng3 - 022] (Eterna round: R96, puzzle: Exclusion NG 3)				12.6	9.84	14.4
UCGCUCCGUGUAGGAUAUCGCCGUUCUACUCGGCGAGAAGGACAUGAGGAUCACCCAUGUAUGUUAUUAUCACGUGUGGCGCGC [Design 54] (Eterna round: R96, puzzle: Exclusion NG 1)					14.2	
AAGAGGUCAGGAUAUACAGGAAGAGAGAGAAGUAGAGGGUAACAUGAGGAUCACCCAUGUAGAAGGGACUAAGA [JR_Exclu2_Sub071] (puzzle: Exclusion 2)	67.9	48.5	63.1			
AUAUUAACAUAGGAUAUCGAAUUUAUCAUUUAACGAGAAGGAUGAACAUGAGGAUCACCCAUGUGGUAUCAUGG [Mat - Exclusion 6 - JL Mod - D1] (puzzle: Exclusion 6)	171	144	249			

— the supplement of paper PMC9170038
